The text below walks through data of paper PMC6884004.

Test [1] has as its target Full length human MCAK (mitotic centromere-associated kinesin) (human) (UniProt Q99661). Description: pull-down; full length human MCAK coupled (1 µg/µl beads) to cyanogen bromide-activated Sepharose beads via lysines or the N-terminal amine; beads pre-incubated with 5 mM AMPPNP or ADP for 30 min at 20°C; 15 μM porcine brain tubulin, 30 min, 20°C; nucleotide kept in the washing buffer; SDS-PAGE band intensity compared with uncoated beads.

In test [2] the target is synthetic MTED peptide (MT elimination domain of Drosophila Efa6) (Drosophila melanogaster). Description: pull-down; MTED or scrambled peptide coupled via the N-terminal amine to cyanogen bromide-activated Sepharose beads (5 ng peptide/μl beads); 15 μM porcine brain tubulin (un-polymerised GDP-tubulin); BRB80 with 0.2% Tween 20, 30 min, 20°C; five washes; SDS-PAGE band intensity compared with uncoated beads.

In test [3] the target is GMPCPP-stabilised, rhodamine-labeled microtubules grown from porcine brain tubulin (porcine) (UniProt P02550). Description: TIRF microscopy of GFP-tagged protein on surface-adhered microtubules; GMPCPP-stabilised rhodamine-labeled MTs adhered to flow chambers; 20 nM Efa6-ΔCterm::GFP in BRB20 pH 6.9, 75 mM KCl, 0.05% Tween20, 0.1 mg/ml BSA, or 20 nM MCAK::GFP in the same buffer plus 1 mM ATP and 1 mM taxol; mean GFP intensity on individual MTs.

In test [4] the target is porcine brain tubulin (un-polymerised GDP-tubulin) (porcine) (UniProt P02550).

For “porcine brain tubulin (un-polymerised GDP-tubulin) (from UniProt P02550 1-451; P02554 1-445) (complex)”, the fold tubulin pulled down against uncoated beads (with AMPPNP or ADP) in test [1] is 1.5 fold. In test [2], this molecule displayed a fold tubulin pulled down against beads coated with scrambled peptide of 5 fold and a fold tubulin pulled down against uncoated beads of 3 fold.

B1: MCAK::GFP (His6-MCAK::EGFP-StrepII) (enzyme)
chain: MAMDSSLQARLFPGLAIKIQRSNGLIHSANVRTVNLEKSCVSVEWAEGGATKGKEIDFDDVAAINPELLQLLPLHPKDNLPLQENVTIQKQKRRSVNSKIPAPKESLRSRSTRMSTVSELRITAQENDMEVELPAAANSRKQFSVPPAPTRPSCPAVAEIPLRMVSEEMEEQVHSIRGSSSANPVNSVRRKSCLVKEVEKMKNKREEKKAQNSEMRMKRAQEYDSSFPNWEFARMIKEFRATLECHPLTMTDPIEEHRICVCVRKRPLNKQELAKKEIDVISIPSKCLLLVHEPKLKVDLTKYLENQAFCFDFAFDETASNEVVYRFTARPLVQTIFEGGKATCFAYGQTGSGKTHTMGGDLSGKAQNASKGIYAMASRDVFLLKNQPCYRKLGLEVYVTFFEIYNGKLFDLLNKKAKLRVLEDGKQQVQVVGLQEHLVNSADDVIKMIDMGSACRTSGQTFANSNSSRSHACFQIILRAKGRMHGKFSLVDLAGNERGADTSSADRQTRMEGAEINKSLLALKECIRALGQNKAHTPFRESKLTQVLRDSFIGENSRTCMIATISPGISSCEYTLNTLRYADRVKELSPHSGPSGEQLIQMETEEMEACSNGALIPGNLSKEEEELSSQMSSFNEAMTQIRELEEKAMEELKEIIQQGPDWLELSEMTEQPDYDLETFVNKAESALAQQAKHFSALRDVIKALRLAMQLEEQASRQISSKKRPQ
Consider B1, for which, in test [3], the fold of molecules on MTs against Efa6-ΔCterm::GFP at the same concentration is more than 2 fold.

In turn, APRFEAYMMTGDLILNLSRT [synthetic MTED peptide (MT elimination domain of Drosophila Efa6)] registered a fold decrease in amount of MT polymer in the MT growth assay (30 μM tubulin with 30 μM MTED peptide, against no peptide) in test [4] of 10 fold.
